# Assay results reported in US20140303084A1 (Biogen, published 2014).
# Bridge positions count the residues as written; N and C are the ends. Square brackets hold non-standard residues; d marks the D form. Primed or numbered codes have the meaning given here. Side chains are listed from the residue outwards. Ends that are not written are not given here. * marks the point of attachment. Biotin = O=C1N[C@H]2[C@H](CS[C@H]2CCCCC(=O)*)N1; PEG2(3) = PEG2 spacer carrying biotin on Lys; 1Nal = N[C@@H](Cc1cccc2ccccc12)C(=O)O; NMeY = CN[C@@H](Cc1ccc(O)cc1)C(=O)O; NMeR = CN[C@@H](CCCNC(=N)N)C(=O)O; NMeT = CN[C@H](C(=O)O)[C@@H](C)O; NMeL = CN[C@@H](CC(C)C)C(=O)O; Tle = CC(C)(C)[C@H](N)C(=O)O; NMeS = CN[C@@H](CO)C(=O)O; NMeA = CN[C@@H](C)C(=O)O; Nle = CCCC[C@H](N)C(=O)O; PEG2′ = PEG2 spacer unit; Aib = CC(C)(N)C(=O)O; Sar = CNCC(=O)O
# B1: rRAAGKLTCLASYCWLAATGIA (peptide)
# peptide: [dR]RAAGKLTCLASYCWLAATGIA
# modifications: not fully specified (C-terminus); printed as rRAAGKLTCLASYCWLAATGIA; cysteine pairing not given here
# B2: RRAPGK-MeLeu-TCLASYCWLFWTGIA (peptide)
# peptide: RRAPGK[NMeL]TCLASYCWLFWTGIA
# modifications: not fully specified (bridges); printed as RRAPGK-MeLeu-TCLASYCWLFWTGIA; cysteine pairing not given here
# B3: RRAPGKLTC-MeLeu-ASYCWLFWTGIA (peptide)
# peptide: RRAPGKLTC[NMeL]ASYCWLFWTGIA
# modifications: not fully specified (bridges); printed as RRAPGKLTC-MeLeu-ASYCWLFWTGIA; cysteine pairing not given here
# B4: rRASGKLTCLASYCWLFWTGIA (peptide)
# peptide: [dR]RASGKLTCLASYCWLFWTGIA
# modifications: not fully specified (C-terminus); printed as rRASGKLTCLASYCWLFWTGIA; cysteine pairing not given here
# B5: rRAPGKLTCLASYCWLSWTGIA (peptide)
# peptide: [dR]RAPGKLTCLASYCWLSWTGIA
# modifications: not fully specified; printed as rRAPGKLTCLASYCWLSWTGIA; cysteine pairing not given here
# B6: RRAPGKLQCLASYCWLFWTG-Nle-A (peptide)
# peptide: RRAPGKLQCLASYCWLFWTG[Nle]A
# modifications: not fully specified; printed as RRAPGKLQCLASYCWLFWTG-Nle-A; cysteine pairing not given here
# B7: RRAPGKLQCLASYCWLFWTG-(1-Nal)-A (peptide)
# peptide: RRAPGKLQCLASYCWLFWTG[1Nal]A
# modifications: not fully specified; printed as RRAPGKLQCLASYCWLFWTG-(1-Nal)-A; cysteine pairing not given here
# B8: rRAPGKLTCLASYCWLFSTGIA (peptide)
# peptide: [dR]RAPGKLTCLASYCWLFSTGIA
# modifications: not fully specified (C-terminus); printed as rRAPGKLTCLASYCWLFSTGIA; cysteine pairing not given here
# B9: rRAPGKSTCLASYCWLFWTGIA (peptide)
# peptide: [dR]RAPGKSTCLASYCWLFWTGIA
# modifications: not fully specified (C-terminus); printed as rRAPGKSTCLASYCWLFWTGIA; cysteine pairing not given here
# B10: RRAP-Sar-KLTCLASYCWLFWTGIA (peptide)
# peptide: RRAP[Sar]KLTCLASYCWLFWTGIA
# modifications: not fully specified; printed as RRAP-Sar-KLTCLASYCWLFWTGIA; cysteine pairing not given here
# B11: RRAPGKLQCLASYCWLFWTG-Tle-A (peptide)
# peptide: RRAPGKLQCLASYCWLFWTG[Tle]A
# modifications: not fully specified; printed as RRAPGKLQCLASYCWLFWTG-Tle-A; cysteine pairing not given here
# B12: rRAAGKATCLASACW LAATGIA (peptide)
# peptide: [dR]RAAGKATCLASACWLAATGIA
# modifications: not fully specified (C-terminus); printed as rRAAGKATCLASACW LAATGIA; cysteine pairing not given here
# B13: RRAPGKLTCLAS-MeTyr-CWLFWTGIA (peptide)
# peptide: RRAPGKLTCLAS[NMeY]CWLFWTGIA
# modifications: not fully specified (bridges); printed as RRAPGKLTCLAS-MeTyr-CWLFWTGIA; cysteine pairing not given here
# B14: rRAAGKLTCLASACWLFATGIA (peptide)
# peptide: [dR]RAAGKLTCLASACWLFATGIA
# modifications: not fully specified (C-terminus); printed as rRAAGKLTCLASACWLFATGIA; cysteine pairing not given here
# B15: RRAPGKLTCLA-MeSer-YCWLFWTGIA (peptide)
# peptide: RRAPGKLTCLA[NMeS]YCWLFWTGIA
# modifications: not fully specified (bridges); printed as RRAPGKLTCLA-MeSer-YCWLFWTGIA; cysteine pairing not given here
# B16: RR-MeAla-PGKLTCLASYCWLFWTGIA (peptide)
# peptide: RR[NMeA]PGKLTCLASYCWLFWTGIA
# modifications: disulfide 9-14 (inferred); not fully specified (C-terminus); printed as RR-MeAla-PGKLTCLASYCWLFWTGIA
# B17: R-MeArg-APGKLTCLASYCWLFWTGIA (peptide)
# peptide: R[NMeR]APGKLTCLASYCWLFWTGIA
# modifications: disulfide 9-14 (inferred); not fully specified (C-terminus); printed as R-MeArg-APGKLTCLASYCWLFWTGIA
# B18: RRAPGKLQCLASYCWLFWT-Aib-IA (peptide)
# peptide: RRAPGKLQCLASYCWLFWT[Aib]IA
# modifications: not fully specified; printed as RRAPGKLQCLASYCWLFWT-Aib-IA; cysteine pairing not given here
# Target: human Factor IXa (human, UniProt P00740 47-191; P00740 227-461)
# Experiment: cell-based or functional assay
Binder,"EC50 [µM], FXa generation assay","EC50 [µM], FXa generation assay with hFIXa"
B1,> 10 µM,–
RRAPGKLQCLASYCWLFWTKIA,> 1 µM,–
B2,> 1 µM,–
RRAKGKLQCLASYCWLFWTGIA,> 1 µM,–
KRAPGKLQCLASYCWLFWTGIA,< 0.5 µM,–
RRAPGKLQCLASYCWLFWTGLA,< 0.5 µM,–
RRAPGKLQCLASYCWLFWTGKA,> 5 µM,–
B3,> 1 µM,–
B4,< 0.5 µM,–
B5,> 5 µM,–
B6,< 0.5 µM,–
B7,< 0.5 µM,–
R[dR]APGKLTCLASYCWLFWTGIA-NH2 (cysteine pairing not given here) [compound 6],–,< 0.5 µM
B8,< 0.5 µM,–
RRAPK([PEG2(3)-Biotin])KLTCLASYCWLFWTGIA-NH2 (cysteine pairing not given here) [compound 20],–,< 0.5 µM
RRAPGKLQCLASYCWLF,> 5 µM,–
RRAPGKLQCLASYCWLFWT,> 1 µM,–
GKLQCLASYCWLFWTGIA,< 0.5 µM,–
B9,< 0.5 µM,–
B10,< 0.5 µM,–
[NMeR]RAPGKLTCLASYCWLFWTGIA (cysteine pairing not given here) [MeArg-RAPGKLTCLASYCWLFWTGIA],> 1 µM,–
B11,< 0.5 µM,–

Binder,"EC50 [µM], FXa generation assay","EC50 [µM], FXa generation assay with hFIXa"
RRAPGKLTCLASYCWLFWTGIA-NH2 (cysteine pairing not given here) [compound 4],–,< 0.5 µM
B12,> 10 µM,–
RRAPGKLQCLASYCWLFW,> 1 µM,–
RKAPGKLQCLASYCWLFWTGIA,> 1 µM,–
RRAPGKLQCLASYCWLFWKGIA,> 5 µM,–
RRAPGKLQCLASYCWLFWTGFA,< 0.5 µM,–
B13,> 1 µM,–
B14,> 1 µM,–
APGKLQCLASYCWLFWTGIA,< 0.5 µM,–
RRAPGKLQCLASYCWLFWTGIK,> 1 µM,–
RRKPGKLQCLASYCWLFWTGIA,> 1 µM,–
B15,< 0.5 µM,–
PGKLQCLASYCWLFWTGIA,< 0.5 µM,–
B16,< 0.5 µM,–
B17,< 0.5 µM,–
B18,> 1 µM,–
RRAPGKLQCLASYCWLFKTGIA,> 10 µM,–
RRAPKKLQCLASYCWLFWTGIA,> 1 µM,–
RRAPGKL[NMeT]CLASYCWLFWTGIA (cysteine pairing not given here) [RRAPGKL-MeThr-CLASYCWLFWTGIA],> 1 µM,–
RAPGKLQCLASYCWLFWTGIA,< 0.5 µM,–
RRAPGKLTCLAK([PEG2′-Biotin])YCWLFWTGIA-NH2 (cysteine pairing not given here) [compound 18],–,< 0.5 µM
RRAPGKLQCLASYCWLFWTG,> 1 µM,–
